The record followed here is patent US20140322218A1 (Amgen, published 2014).

In assay [1] the target is T1, rhCDH19(1-43)::FLAG::rhCDH19(44-141)::raCDH19(140-247)::rhCDH19(250-772), on 293T cells (rhesus macaque/rat chimera, UniProt Q9H159 44-772 (human entry)).
T1 construct: Entry holds leader (1-43), Flag tag and CDH19 part; leader left out; also called ra EC2 (rhesus backbone)
T1 chain: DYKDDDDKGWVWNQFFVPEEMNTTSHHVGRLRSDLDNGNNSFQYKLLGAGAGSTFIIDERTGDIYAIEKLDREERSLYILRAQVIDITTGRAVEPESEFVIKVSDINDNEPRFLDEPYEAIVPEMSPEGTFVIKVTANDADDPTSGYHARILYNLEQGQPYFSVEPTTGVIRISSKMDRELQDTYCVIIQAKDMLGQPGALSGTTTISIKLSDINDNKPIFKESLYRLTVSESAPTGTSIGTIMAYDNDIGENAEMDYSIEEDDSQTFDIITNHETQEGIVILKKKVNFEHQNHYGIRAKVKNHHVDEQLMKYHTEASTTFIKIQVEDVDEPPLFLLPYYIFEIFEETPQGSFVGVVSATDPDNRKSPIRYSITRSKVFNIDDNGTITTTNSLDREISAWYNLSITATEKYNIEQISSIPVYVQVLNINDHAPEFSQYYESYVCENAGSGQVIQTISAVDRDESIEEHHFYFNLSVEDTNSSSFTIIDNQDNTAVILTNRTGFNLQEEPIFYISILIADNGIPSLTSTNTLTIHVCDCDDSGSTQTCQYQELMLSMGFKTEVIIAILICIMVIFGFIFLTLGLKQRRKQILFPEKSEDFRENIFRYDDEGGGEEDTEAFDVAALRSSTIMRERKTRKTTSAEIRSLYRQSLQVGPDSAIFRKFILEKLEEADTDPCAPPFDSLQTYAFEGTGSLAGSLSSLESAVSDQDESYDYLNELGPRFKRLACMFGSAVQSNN
In words: FACS, transfected 293T. A general note: In flow cytometry, cells or beads pass a laser one at a time.
Experimental: The following binding assay was completed in presence of 2 mM CaCl2. […] Cells were then washed one time and the amount of cell associated Alexa647-labelled Ab was quantitated by flow cytometry. The experiments included mock transfected controls.

The target in assay [2] is T2, huCDH19(44-249)::muCDH19(248-770), Flag-tagged, on 293T cells (human/mouse chimera).
T2 construct: also called Hu EC1-2; C137896
The assay is described as follows: FACS, transfected 293T.
Text: (§1) The experiment included assaying the anti-CDH19 antibodies against mouse Cadherin19 to determine suitability for binning on these human/mouse chimeras.

Assay [3] concerns the target T3, huCDH19(44-141)::muCDH19(140-770), Flag-tagged, on 293T cells (human/mouse chimera).
T3 construct: also called Hu EC1
The assay is described as follows: FACS, transfected 293T.
Text: as §1

Assay [4] concerns the target T4, muCDH19(44-770), Flag-tagged, on 293T cells (mouse).
T4 construct: also called Mu EC1-5
T4 chain: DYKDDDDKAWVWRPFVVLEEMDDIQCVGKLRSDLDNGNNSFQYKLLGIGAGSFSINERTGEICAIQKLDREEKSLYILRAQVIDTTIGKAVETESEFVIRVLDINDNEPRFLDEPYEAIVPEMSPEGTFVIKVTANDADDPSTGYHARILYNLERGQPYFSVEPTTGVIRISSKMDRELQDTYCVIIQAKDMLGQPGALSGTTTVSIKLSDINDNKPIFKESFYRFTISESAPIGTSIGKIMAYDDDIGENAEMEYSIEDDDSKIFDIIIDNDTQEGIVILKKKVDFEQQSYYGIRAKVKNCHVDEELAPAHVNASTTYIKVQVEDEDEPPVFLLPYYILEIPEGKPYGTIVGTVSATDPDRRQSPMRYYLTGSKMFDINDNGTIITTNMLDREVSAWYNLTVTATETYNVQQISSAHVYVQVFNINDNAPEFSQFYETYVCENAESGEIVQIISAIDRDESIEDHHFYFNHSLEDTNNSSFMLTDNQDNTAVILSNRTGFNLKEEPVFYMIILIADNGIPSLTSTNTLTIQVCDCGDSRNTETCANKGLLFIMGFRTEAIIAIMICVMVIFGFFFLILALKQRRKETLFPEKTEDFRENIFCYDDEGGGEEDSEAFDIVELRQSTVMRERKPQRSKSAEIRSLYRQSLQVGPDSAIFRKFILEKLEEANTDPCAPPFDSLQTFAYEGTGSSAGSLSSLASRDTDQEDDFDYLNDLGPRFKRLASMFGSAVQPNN
In words: FACS, transfected 293T.

Assay [5] addresses T5, Human Cadherin-19 (human, UniProt Q9H159 44-772).
T5 construct: Residues 1-43 are named as the native leader in the construct designations and are left out; also called human CDH19; huCDH19
In words: FACS, endogenous and recombinant human CDH19.
Experimental: FACS binding assays were performed to evaluate the binding of the anti-Cadherin-19 receptor specific antibodies to endogenous Cadherin-19 receptor expressed on the CHL-1 tumor cell lines.
FACs assays were performed by incubating hybridoma supernatants with 10,000 to 25,000 cells in PBS/2% Fetal bovine serum/2 mM Calcium Chloride at 4° C. for one hour followed by two washes with PBS/2% Fetal bovine serum/2 mM Calcium Chloride. Cells were then treated with florochrome-labeled secondary antibodies at 4° C. followed by one wash. The cells were resuspended in 50 μl of PBS/2% FBS and antibody binding was analyzed using a FACSCalibur™ instrument.

Assay [6] concerns the target T6, muCDH19(1-43)::FLAG::muCDH19(44-770)::huCDH19(271), on 293T cells (mouse/human chimera).
T6 construct: Entry holds leader (1-43), Flag tag and CDH19 part; leader left out; also called Hu EC3a
T6 chain: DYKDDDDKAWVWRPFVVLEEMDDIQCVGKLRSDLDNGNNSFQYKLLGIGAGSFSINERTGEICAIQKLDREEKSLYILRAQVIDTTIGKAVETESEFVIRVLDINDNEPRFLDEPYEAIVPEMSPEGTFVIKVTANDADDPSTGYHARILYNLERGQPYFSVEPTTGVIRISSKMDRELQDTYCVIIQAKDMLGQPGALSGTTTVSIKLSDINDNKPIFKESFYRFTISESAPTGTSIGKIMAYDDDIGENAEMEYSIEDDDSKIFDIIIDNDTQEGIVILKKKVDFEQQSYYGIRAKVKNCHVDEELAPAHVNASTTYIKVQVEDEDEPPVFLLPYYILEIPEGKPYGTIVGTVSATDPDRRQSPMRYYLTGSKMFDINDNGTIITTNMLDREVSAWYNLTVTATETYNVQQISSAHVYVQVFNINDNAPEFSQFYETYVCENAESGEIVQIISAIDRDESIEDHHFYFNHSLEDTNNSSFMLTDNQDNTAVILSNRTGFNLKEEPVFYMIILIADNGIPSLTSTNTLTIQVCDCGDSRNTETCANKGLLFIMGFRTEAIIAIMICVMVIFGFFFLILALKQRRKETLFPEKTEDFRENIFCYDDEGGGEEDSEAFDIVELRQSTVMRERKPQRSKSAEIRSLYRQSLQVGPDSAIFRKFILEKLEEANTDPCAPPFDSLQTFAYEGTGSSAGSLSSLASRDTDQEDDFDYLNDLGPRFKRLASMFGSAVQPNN
The assay is described as follows: FACS, transfected 293T.

B1: hu anti-<huCDH19> 25F8.1 (1-469)(F90Y) VH::huIgG1z / 25F8.1 (1-235)(K45Q,S102A,D111E) VL::huLLC-C2 (Ab ID 14096) (antibody, V domains shown)
VH: QVQLVQSGAEVKKPGASVKVSCKASGYTFTSYYIHWVRQAPGQGLEWMGIINPSGGSTRYAQKFQGRVTMTRDTSTSTVYMELSSLRSEDTAVYYCARGGIQLWLHFDYWGQGTLVTVSS
VL: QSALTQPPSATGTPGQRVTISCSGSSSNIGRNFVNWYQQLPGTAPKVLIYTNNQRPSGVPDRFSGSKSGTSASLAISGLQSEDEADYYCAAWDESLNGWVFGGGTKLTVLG
notes: Engineered variant of 25F8
As to B1, the binding result in assay [1] was “no binding (tested: 5 ug/ml)”.

B2: hu anti-<huCDH19> 26D1.1 VH::huIgG1z / 26D1.1 VL::huLLC-C2 (Ab ID 13882) (antibody, V domains shown)
VH: QVQLVQSGAEVKKPGASVKVSCKASRYTFTSYYMSWVRQAPGQGLEWMGIIHPSGGDTTYAQKFQGRVTMTGDTSTSTVYMELSSLRSEDTAVYYCARGGIKLWLHFDYWGQGTLVTVSS
VL: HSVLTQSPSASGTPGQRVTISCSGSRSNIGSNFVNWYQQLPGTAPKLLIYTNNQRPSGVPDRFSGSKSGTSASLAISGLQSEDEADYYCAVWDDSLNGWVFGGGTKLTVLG
As to B2, the binding result is on record as “binds” in assay [2], “binds” in assay [3], “no binding (tested: 5 ug/ml)” in assay [4] and “no binding (tested: 5 ug/ml)” in assay [1].

B3: hu anti-<huCDH19> 4B10 VH::huIgG1z / 4B10 VL::huKLC (Ab ID 13590) (antibody, V domains shown)
VH: QVQLVESGGGVVQPGRSLRLSCAASGFTFSSYDMHWVRQAPGKGLEWVAVISYDGTNEYYADSVKGRFTISRDTSKNTLYLQMNSLRAEDTAVYYCARERYFDWSFDYWGQGTLVSVSS
VL: EIVLTQSPGTLSLSPGERATLSCRASQSVSNTYLAWYHQRPGQAPRLLIYGASSRATGIPDRFSGSGSGTDFALTISSLEPEDFAVYYCQQYSNSWTFGQGTKVEIKR
Take B3: the binding result was “binds” in assay [5], “no binding (tested: 5 ug/ml)” in assay [6] and “no binding (tested: 5 ug/ml)” in assay [4].

B4: hu anti-<huCDH19> 4A9 VH::huIgG1z / 4A9 VL::huLLC-C1 (Ab ID 13589) (antibody, V domains shown)
VH: QVQLQESGPGLVKPSETLSLTCTVSGGSISGYYWSWIRQPPGKGLEWFAYFSYSGSTNYNPSLKSRVTLSVDTSKNQFSLKLSSVTAADTAVYYCARNWAFHFDFWGQGTLVTVSS
VL: QSVLTQPPSVSGAPGQRVTISCTGSSSNIGTGYAVHWYQQFPGTAPKLLIYGNNNRPSGVPDRFSGSKSGTSASLAITGLQAEDEADYYCQSYDSRLSGWVFGGGTKLTVLG
notes: Recombinant fully human IgG1
With B4, the binding result is recorded as “binds” in assay [2], “binds” in assay [3], “no binding (tested: 5 ug/ml)” in assay [4] and “no binding (tested: 5 ug/ml)” in assay [1].

B5: anti-CDH19 antibody 2G6 (Ab ID 13588) (antibody, human IgG1, lambda, V domains shown)
VH: QVQLVESGGGVVQPGRSLRLSCAASGFTFSSYGMHWVRQAPGKGLEWVAFIWYDGSNKYYADSVKDRFTISRDNSKNTLYLQMKSLRAEDTAVYYCARRAGIIGTIGYYYGMDVWGQGTTVTVSS
VL: SYELTQPPSVSVSPGQTASITCSGDRLGEKYTCWYQQRPGQSPLLVIYQDTKRPSGIPERFSGSNSGNTATLTISGTQAMDEADYYCQAWDSSTVVFGGGTKLTVLG
Regarding B5, the binding result in assay [5], in assay [2], in assay [3], in assay [6] and in assay [4] was “binds” throughout.

B6: hu anti-<huCDH19> 23A10.3 (1-474)(L92Q) VH::huIgG1z / 23A10.3 (1-231)(C42S) VL::huLLC-C2 (Ab ID 14077) (antibody, V domains shown)
VH: QVQLVESGGGVVQPGRSLRLSCAASGFTFSRYGIHWVRQAPGKGLEWVAVIWYDGSNKYYADSVKGRFTISRDNSKNTLYLQMNSLRAEDSAVYYCARRAGIPGTTGYYYGMDVWGQGTTVTVSS
VL: SYELTQPPSVSVSPGQTASITCSGDRLGEKYVSWYQQKPGQSPILVIYQDNKWPSGIPERFSGSNSGNTATLTISGTQAMDEADYYCQAWDSSTVVFGGGTKLTVLG
notes: Engineered variant of 23A10
Take B6: the binding result in assay [4] is reported as “binds”.
